Molecular target: T1, SLA-2*HB01 heavy chain (swine leukocyte antigen 2, haplotype HB01 allele), extracellular domain (Sus scrofa)
T1 construct: SLA-2 haplotype HB01 allele, swine MHC class I heavy chain, extracellular domain stated as 275 amino acids; also called heavy chain of SLA-2*HB01
T1 MHC heavy: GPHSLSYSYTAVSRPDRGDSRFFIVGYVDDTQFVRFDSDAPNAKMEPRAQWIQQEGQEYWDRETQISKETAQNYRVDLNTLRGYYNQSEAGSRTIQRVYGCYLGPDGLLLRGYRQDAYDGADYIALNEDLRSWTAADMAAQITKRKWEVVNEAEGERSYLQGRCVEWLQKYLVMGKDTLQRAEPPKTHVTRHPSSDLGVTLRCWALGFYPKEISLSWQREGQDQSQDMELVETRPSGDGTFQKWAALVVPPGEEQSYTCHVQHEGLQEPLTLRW
Assay: SEC
Conditions: both partners purified

B1: FMDV-AS64 CTL epitope (ALLRSATYY) from VP1 residues 64-72 of Asia 1 serotype foot-and-mouth disease virus (peptide)
peptide: ALLRSATYY
B1: binds.
